Measurements reported in US20230272011A1 (AVACTA LIFE SCIENCES, published 2023).

What was measured:
human serum albumin [1] = target: T1, human serum albumin (human, UniProt P02768 25-609); test: Biacore sensorgram on serum albumin (HSA)
T1 construct: mature; Bought protein; biotinylated in the Octet and HTRF assays; also called HSA; HuSA

cynomolgus serum albumin [2] = target: T2, cynomolgus serum albumin (cynomolgus); test: binding ELISA, coated albumin, pH 7.4
T2 construct: also called CSA; cyno serum albumin
Experimental: (§1) Briefly, ELISA was performed as follow:
(§2) Human (Sigma-Aldrich); Cynomolgus and Mouse (Abcam); Equine (Abcam); Canine (Abcam); Mouse (Sigma-Aldrich); Rabbit (Sigma-Aldrich); Porcine (Sigma-Aldrich);, and Rat (Sigma-Aldrich) serum albumin were coated overnight on 96 well plates (Corning Costar) at 1 μg/ml in PBS at the appropriate pH (pH 6.0 or 7.4). Plates were saturated using 5% Casein (Sigma-Aldrich) buffer in PBS. […] Plates were then washed and AFFIMER® proteins were detected using a biotinylated polyclonal antibody anti-Cystatin (R&D System) for 90 minutes. After washing, streptavidin-HRP (Thermo Fisher Scientific) was added and incubated for 30 minutes.

rabbit serum albumin = rabbit serum albumin (rabbit, UniProt P49065 25-608); test: binding ELISA, coated albumin, pH 7.4
Experimental: as §1, §2

canine serum albumin [3] = target: T3, canine serum albumin (canine, UniProt P49822 25-608); test: binding ELISA, coated albumin, pH 7.4
Experimental: as §1, §2

porcine serum albumin [4] = target: T4, porcine serum albumin (porcine, UniProt P08835 25-607); test: binding ELISA, coated albumin, pH 7.4
Experimental: as §1, §2

rat serum albumin [5] = target: T5, rat serum albumin (rat, UniProt P02770 25-608); test: binding ELISA, coated albumin, pH 7.4
Experimental: as §1, §2

human serum albumin [6] = target: T1, human serum albumin; test: binding ELISA, coated albumin, pH 7.4
Experimental: as §1, §2

mouse serum albumin [7] = target: T6, mouse serum albumin (mouse, UniProt P07724 25-608); test: Biacore, immobilised MSA, pH 6.0
T6 construct: also called MSA
Source text: (§3) […] Fc2-1, Fc3-1 and Fc4-1 kinetic data was blank subtracted and fit to a 1:1 Langmuir binding model (BIAcore Evalution software; GE) to calculate KD values.

cynomolgus serum albumin [8] = target: T2, cynomolgus serum albumin; test: BLI (Octet), biotinylated albumin on SA sensor, pH 6.0
Experimental: (§4) Biotinylated antigen was captured onto SA sensors at 1 μg/ml for 600 seconds in a buffer comprising PBS-T (0.01% Tween 20)+1% casein at either pH 6.0 or 7.4. Association was carried out for 300 seconds and dissociation for 600 seconds, and regeneration was performed using 10 mM glycine pH 1.5 (GE Healthcare) for 3×5 seconds. All steps were carried out at 1000 rpm and 25° C. Purified AFFIMER® polypeptide in two-fold serial dilutions was analyzed at a starting concentration of approximately 10× K_{D value}. Kinetics analyses were carried out using the Octet data analysis software, subtracting the reference sensor (loaded with antigen), aligning the Y-axis to baseline, and using inter-step correction to align association to dissociation. Savitzky-Golay filtering was applied and the data processed. Analysis of the data was carried out with a 1:1 model, global fit, Rₘₐₓ unlinked by sensor.

human serum albumin [9] = target: T1, human serum albumin; test: as above
Experimental: as §4

mouse serum albumin [10] = target: T6, mouse serum albumin; test: as above
Experimental: as §4

cynomolgus serum albumin [11] = target: T2, cynomolgus serum albumin; test: BLI (Octet), biotinylated albumin on SA sensor, pH 7.4
Experimental: as §4

human serum albumin [12] = target: T1, human serum albumin; test: as above
Experimental: as §4

mouse serum albumin [13] = target: T6, mouse serum albumin; test: as above
Experimental: as §4

human serum albumin [14] = target: T1, human serum albumin; test: Biacore, immobilised HSA, running buffer pH 7.4
Experimental: (§5) Affinities for mouse, human, and cynomolgus serum were also measured at pH 7.4 for four (4) AFFIMER® binders using surface plasmon resonance (SPR) (FIG. 5, Table 5). […] A concentration titration of AFFIMER® monomers was run as analyte at a flow rate of 30 μl/min or 60 μl/min. Fc2-1, Fc3-1 and Fc4-1 kinetic data was blank subtracted and fit to a 1:1 Langmuir binding model (BIAcore Evalution software; GE) to calculate KD values.

human serum albumin [15] = target: T1, human serum albumin; test: Biacore, immobilised HSA, running buffer pH 6.0
Source text: as §3

cynomolgus serum albumin [16] = target: T2, cynomolgus serum albumin; test: SPR (Biacore T200), albumin amine-coupled to CM5, Affimer analyte, pH 7.4
Experimental: as §5

human serum albumin [17] = target: T1, human serum albumin; test: as above
Experimental: as §5

mouse serum albumin [18] = target: T6, mouse serum albumin; test: as above
Experimental: as §5

cynomolgus serum albumin [19] = target: T2, cynomolgus serum albumin; test: binding ELISA on coated albumin, pH 6.0, panel 'CSA Binding at pH 6.0'
Experimental: as §1, §2

human serum albumin [20] = target: T1, human serum albumin; test: binding ELISA on coated albumin, pH 6.0, panel 'HSA Binding at pH 6.0'
Experimental: as §1, §2

rat serum albumin [21] = target: T5, rat serum albumin; test: binding ELISA on coated albumin, pH 6.0, panel 'Rat SA Binding at pH 6.0'
Experimental: as §1, §2

canine serum albumin [22] = target: T3, canine serum albumin; test: binding ELISA on coated albumin, pH 6.0, panel 'Canine SA Binding at pH 6.0'
Experimental: as §1, §2

equine serum albumin [23] = target: T7, equine serum albumin (equine, UniProt P35747 25-607); test: binding ELISA on coated albumin, pH 7.4, panel 'Equine SA Binding at pH 7.4' (Table 6 gives NA for this pair)
Experimental: as §1, §2

equine serum albumin [24] = target: T7, equine serum albumin; test: binding ELISA, coated albumin, pH 7.4
Experimental: as §1, §2

mouse serum albumin [25] = target: T6, mouse serum albumin; test: binding ELISA, coated albumin, pH 7.4
Experimental: as §1, §2

mouse serum albumin [26] = target: T6, mouse serum albumin; test: binding ELISA on coated albumin, pH 6.0, panel 'MSA Binding at pH 6.0'
Experimental: as §1, §2

cynomolgus serum albumin [27] = target: T2, cynomolgus serum albumin; test: Octet biolayer interferometry, biotinylated albumin on SA sensors, pH 6.0
Experimental: as §4

human serum albumin [28] = target: T1, human serum albumin; test: as above
Experimental: as §4

mouse serum albumin [29] = target: T6, mouse serum albumin; test: as above
Experimental: as §4

cynomolgus serum albumin [30] = target: T2, cynomolgus serum albumin; test: Octet biolayer interferometry, biotinylated albumin on SA sensors, pH 7.4
Experimental: as §4

human serum albumin [31] = target: T1, human serum albumin; test: as above
Experimental: as §4

mouse serum albumin [32] = target: T6, mouse serum albumin; test: as above
Experimental: as §4

porcine serum albumin [33] = target: T4, porcine serum albumin; test: binding ELISA on coated albumin, pH 6.0, panel 'Porcine SA Binding at pH 6.0'
Experimental: as §1, §2

human serum albumin [34] = target: T1, human serum albumin; test: binding ELISA on coated HSA, pH 7.4
Experimental: (§6) After saturation with 5% PBS Casein pH 7.5, plates were washed and a dilution of AFFIMER® trimers or controls were incubated on the plate for 90 minutes. Plates were then washed, and a biotinylated polyclonal antibody anti-cystatin A (R&D Systems) was added for 1 hour. Plates were washed and AFFIMER® ILFs were detected using streptavidin-HRP. After a last washing step, TMB was added for the development of the experiment, and the plates were read at 450 nm.

mouse serum albumin [35] = target: T6, mouse serum albumin; test: binding ELISA on coated MSA, pH 7.4
Experimental: as §6

[36] = target: T8, human PD-L1-Fc (R&D Systems) chimeric protein (human, UniProt Q9NZQ7 19-239); test: Biacore single cycle kinetics on human PD-L1 Fc
T8 construct: Bought reagent; also called rhPD-L1-Fc; huPD-L1; Fc part of the bought chimera not given, not described
T8 sequence (Q9NZQ7 19-239, change not shown): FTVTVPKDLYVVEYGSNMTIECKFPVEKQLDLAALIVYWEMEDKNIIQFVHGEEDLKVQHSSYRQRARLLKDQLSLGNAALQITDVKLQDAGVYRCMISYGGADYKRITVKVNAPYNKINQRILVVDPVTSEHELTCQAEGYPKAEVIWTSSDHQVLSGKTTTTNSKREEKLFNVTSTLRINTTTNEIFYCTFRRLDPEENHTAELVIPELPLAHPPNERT

T5 sequence (P02770 25-608 limits assumed): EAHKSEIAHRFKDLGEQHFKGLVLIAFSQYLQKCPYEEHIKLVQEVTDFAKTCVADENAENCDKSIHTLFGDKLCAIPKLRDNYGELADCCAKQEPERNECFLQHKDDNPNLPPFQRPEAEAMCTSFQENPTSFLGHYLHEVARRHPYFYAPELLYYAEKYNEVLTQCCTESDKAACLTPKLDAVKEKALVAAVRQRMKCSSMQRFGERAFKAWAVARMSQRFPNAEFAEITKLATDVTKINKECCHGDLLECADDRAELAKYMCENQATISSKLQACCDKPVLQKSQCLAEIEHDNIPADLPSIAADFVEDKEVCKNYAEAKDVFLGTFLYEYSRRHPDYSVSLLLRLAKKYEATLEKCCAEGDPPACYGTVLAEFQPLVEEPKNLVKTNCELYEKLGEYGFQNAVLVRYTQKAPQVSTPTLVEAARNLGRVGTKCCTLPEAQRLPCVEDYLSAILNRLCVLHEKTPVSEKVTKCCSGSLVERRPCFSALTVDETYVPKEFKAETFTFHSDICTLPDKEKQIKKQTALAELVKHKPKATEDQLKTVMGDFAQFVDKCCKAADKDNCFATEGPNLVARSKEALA
T6 sequence (P07724 25-608 limits assumed): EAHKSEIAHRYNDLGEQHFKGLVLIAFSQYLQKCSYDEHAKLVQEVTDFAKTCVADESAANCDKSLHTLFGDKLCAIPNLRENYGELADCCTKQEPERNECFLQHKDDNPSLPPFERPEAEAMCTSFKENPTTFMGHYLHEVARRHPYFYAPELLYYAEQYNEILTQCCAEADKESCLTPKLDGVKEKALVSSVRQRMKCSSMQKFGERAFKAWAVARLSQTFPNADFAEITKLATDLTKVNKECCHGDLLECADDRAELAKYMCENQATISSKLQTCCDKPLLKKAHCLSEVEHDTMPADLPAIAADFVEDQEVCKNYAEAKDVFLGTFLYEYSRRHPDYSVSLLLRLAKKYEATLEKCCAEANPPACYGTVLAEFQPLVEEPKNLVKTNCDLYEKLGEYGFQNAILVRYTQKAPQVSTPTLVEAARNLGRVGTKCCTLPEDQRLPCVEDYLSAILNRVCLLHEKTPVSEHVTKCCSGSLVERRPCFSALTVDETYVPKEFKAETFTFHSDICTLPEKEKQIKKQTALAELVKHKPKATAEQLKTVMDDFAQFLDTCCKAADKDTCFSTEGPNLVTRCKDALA
T2 sequence (A2V9Z4 25-608): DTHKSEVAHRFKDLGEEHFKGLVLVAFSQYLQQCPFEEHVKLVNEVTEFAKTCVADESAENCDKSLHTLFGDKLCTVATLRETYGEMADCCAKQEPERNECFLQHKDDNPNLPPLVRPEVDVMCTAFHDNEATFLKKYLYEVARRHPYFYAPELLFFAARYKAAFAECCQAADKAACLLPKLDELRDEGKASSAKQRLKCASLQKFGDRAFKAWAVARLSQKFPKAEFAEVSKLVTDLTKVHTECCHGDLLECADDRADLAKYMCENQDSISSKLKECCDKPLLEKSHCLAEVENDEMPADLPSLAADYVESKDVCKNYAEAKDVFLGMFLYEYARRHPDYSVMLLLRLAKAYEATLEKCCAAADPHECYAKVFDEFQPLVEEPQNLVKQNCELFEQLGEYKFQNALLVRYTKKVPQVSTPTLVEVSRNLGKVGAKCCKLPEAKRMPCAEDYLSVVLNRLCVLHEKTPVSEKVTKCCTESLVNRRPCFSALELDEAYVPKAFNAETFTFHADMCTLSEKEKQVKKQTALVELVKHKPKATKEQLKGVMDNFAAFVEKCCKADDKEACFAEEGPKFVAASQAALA
T4 sequence (P08835 25-607 limits assumed): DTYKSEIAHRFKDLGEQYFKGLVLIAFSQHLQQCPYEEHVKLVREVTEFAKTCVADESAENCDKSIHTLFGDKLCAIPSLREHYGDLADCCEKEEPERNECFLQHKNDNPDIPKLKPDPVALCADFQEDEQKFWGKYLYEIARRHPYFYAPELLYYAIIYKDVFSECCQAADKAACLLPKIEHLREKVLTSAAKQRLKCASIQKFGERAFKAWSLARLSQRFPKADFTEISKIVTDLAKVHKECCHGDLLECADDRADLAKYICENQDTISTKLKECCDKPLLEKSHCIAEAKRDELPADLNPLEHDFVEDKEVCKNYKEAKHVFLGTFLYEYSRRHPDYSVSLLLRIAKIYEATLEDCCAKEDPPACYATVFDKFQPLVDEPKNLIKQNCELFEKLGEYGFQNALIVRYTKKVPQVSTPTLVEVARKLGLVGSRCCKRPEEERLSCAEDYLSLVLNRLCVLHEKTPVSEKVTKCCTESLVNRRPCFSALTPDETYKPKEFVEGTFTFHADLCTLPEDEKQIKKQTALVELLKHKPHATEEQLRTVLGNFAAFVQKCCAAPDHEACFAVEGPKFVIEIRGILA
T3 sequence (P49822 25-608 limits assumed): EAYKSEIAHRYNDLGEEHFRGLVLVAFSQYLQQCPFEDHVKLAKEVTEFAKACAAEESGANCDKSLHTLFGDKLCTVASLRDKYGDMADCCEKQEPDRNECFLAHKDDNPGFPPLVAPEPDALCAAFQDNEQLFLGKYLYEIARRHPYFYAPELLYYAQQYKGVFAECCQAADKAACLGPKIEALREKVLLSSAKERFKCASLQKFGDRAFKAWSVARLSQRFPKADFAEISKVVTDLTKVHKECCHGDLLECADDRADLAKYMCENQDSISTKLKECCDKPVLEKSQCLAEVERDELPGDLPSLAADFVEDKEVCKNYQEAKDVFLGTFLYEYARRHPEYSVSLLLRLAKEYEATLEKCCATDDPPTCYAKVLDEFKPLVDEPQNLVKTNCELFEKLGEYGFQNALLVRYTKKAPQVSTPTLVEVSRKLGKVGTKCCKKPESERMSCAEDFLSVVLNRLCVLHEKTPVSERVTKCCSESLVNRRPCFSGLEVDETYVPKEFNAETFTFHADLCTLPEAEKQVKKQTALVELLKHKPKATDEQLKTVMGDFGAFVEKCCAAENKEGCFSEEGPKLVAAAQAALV
Chain of rabbit serum albumin (P49065 25-608 limits assumed): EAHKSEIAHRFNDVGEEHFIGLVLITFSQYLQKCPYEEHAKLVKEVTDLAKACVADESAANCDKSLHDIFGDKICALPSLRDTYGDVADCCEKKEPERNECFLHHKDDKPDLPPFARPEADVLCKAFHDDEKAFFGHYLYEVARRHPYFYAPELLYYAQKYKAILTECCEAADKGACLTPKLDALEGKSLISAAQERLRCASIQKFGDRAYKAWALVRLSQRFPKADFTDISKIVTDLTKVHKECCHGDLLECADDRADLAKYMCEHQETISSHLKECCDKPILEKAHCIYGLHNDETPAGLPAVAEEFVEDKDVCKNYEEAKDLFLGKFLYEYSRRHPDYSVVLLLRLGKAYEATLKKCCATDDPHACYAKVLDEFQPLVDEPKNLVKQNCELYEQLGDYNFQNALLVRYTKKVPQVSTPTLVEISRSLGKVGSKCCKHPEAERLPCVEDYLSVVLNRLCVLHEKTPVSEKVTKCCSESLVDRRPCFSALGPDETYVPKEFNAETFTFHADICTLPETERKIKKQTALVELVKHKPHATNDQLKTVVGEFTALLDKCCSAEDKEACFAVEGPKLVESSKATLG
T7 sequence (P35747 25-607 limits assumed): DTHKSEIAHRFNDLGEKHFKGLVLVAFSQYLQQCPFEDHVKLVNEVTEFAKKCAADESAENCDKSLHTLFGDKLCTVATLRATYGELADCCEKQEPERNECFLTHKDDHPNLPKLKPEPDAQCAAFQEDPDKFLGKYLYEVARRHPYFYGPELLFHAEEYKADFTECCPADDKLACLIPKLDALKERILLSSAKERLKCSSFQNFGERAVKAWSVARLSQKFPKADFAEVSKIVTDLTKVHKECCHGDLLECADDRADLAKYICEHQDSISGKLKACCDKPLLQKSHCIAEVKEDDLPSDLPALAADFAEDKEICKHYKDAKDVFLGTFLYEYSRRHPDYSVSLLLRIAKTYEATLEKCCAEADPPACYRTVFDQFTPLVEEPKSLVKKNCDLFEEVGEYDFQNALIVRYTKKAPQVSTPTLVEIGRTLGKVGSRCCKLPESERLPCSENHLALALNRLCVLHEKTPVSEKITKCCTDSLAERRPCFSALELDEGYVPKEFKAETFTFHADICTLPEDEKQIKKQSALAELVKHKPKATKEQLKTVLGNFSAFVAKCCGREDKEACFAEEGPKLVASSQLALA

B1: HSA-41 x9 glycine loops (designed binder)
chain: MIPRGLSEAKPATPEIQEIVDKVKPQLEEKTNETYGKLEAVQYKTQVLANFFQRRWPGSTNYYIKVRAGDNKYMHLKVFNGPGGGGGGGGGADRVLTGYQVDKNKDDELTGFHHHHHH
notes: also called HSA-41 loop 4 replaced with 9 glycine residues; loop 4 knockout mutant
- binding result (human serum albumin [1]): no binding

B2: HSA-41 loop 4 deletion (designed binder)
chain: MIPRGLSEAKPATPEIQEIVDKVKPQLEEKTNETYGKLEAVQYKTQVLANFFQRRWPGSTNYYIKVRAGDNKYMHLKVFNGPADRVLTGYQVDKNKDDELTGFHHHHHH
notes: also called loop 4 knockout mutant (deletion)
- binding result (human serum albumin [1]): no binding

B3: HSA-18 (designed binder)
chain: MIPRGLSEAKPATPEIQEIVDKVKPQLEEKTNETYGKLEAVQYKTQVLADWWQAKWPHSTNYYIKVRAGDNKYMHLKVFNGPYKVHQSSGGADRVLTGYQVDKNKDDELTGFHHHHHH
notes: also called HSA-18 monomer
- EC50 (cynomolgus serum albumin [2]): 7.14 nM
- EC50 (rabbit serum albumin): 847 nM
- EC50 (canine serum albumin [3]): 96.5 nM
- EC50 (porcine serum albumin [4]): 615 nM
- EC50 (rat serum albumin [5]): 89.4 nM
- EC50 (human serum albumin [6]): 1.41 nM
- Kd (mouse serum albumin [7]): 49.4 nM
- koff (mouse serum albumin [7]): 0.0298 s⁻¹
- kon (mouse serum albumin [7]): 602000 M⁻¹ s⁻¹
- Kd (cynomolgus serum albumin [8]): 68.7 nM
- Kd (human serum albumin [9]): 17.9 nM
- Kd (mouse serum albumin [10]): 618 nM
- Kd (cynomolgus serum albumin [11]): 106 nM
- Kd (human serum albumin [12]): 36.1 nM
- Kd (mouse serum albumin [13]): 981 nM
- Kd (human serum albumin [14]): 109 nM
- koff (human serum albumin [14]): 0.0078 s⁻¹
- kon (human serum albumin [14]): 71400 M⁻¹ s⁻¹
- Kd (human serum albumin [15]): 152 nM
- koff (human serum albumin [15]): 0.0122 s⁻¹
- kon (human serum albumin [15]): 80000 M⁻¹ s⁻¹
- Kd (cynomolgus serum albumin [16]): 542 nM
- koff (cynomolgus serum albumin [16]): 0.0261 s⁻¹
- kon (cynomolgus serum albumin [16]): 48300 M⁻¹ s⁻¹
- Kd (human serum albumin [17]): 146 nM
- koff (human serum albumin [17]): 0.00789 s⁻¹
- kon (human serum albumin [17]): 54100 M⁻¹ s⁻¹
- Kd (mouse serum albumin [18]): 2180 nM
- koff (mouse serum albumin [18]): 0.0742 s⁻¹
- kon (mouse serum albumin [18]): 34100 M⁻¹ s⁻¹
- EC50 (read off the curve) (cynomolgus serum albumin [19]): ~0.1 nM
- EC50 (read off the curve) (human serum albumin [20]): ~0.2 nM
- EC50 (read off the curve) (rat serum albumin [21]): ~3 nM
- EC50 (read off the curve) (canine serum albumin [22]): ~10 nM
- binding result (equine serum albumin [23]): binds

B4: HSA-31 (designed binder)
chain: MIPRGLSEAKPATPEIQEIVDKVKPQLEEKTNETYGKLEAVQYKTQVLAVWGPEYQHQSTNYYIKVRAGDNKYMHLKVFNGPNAGWPLVPEADRVLTGYQVDKNKDDELTGFHHHHHH
- EC50 (cynomolgus serum albumin [2]): 0.43 nM
- EC50 (rabbit serum albumin): 211 nM
- EC50 (equine serum albumin [24]): 0.25 nM
- EC50 (canine serum albumin [3]): 3.17 nM
- EC50 (porcine serum albumin [4]): 2.6 nM
- EC50 (rat serum albumin [5]): 0.39 nM
- EC50 (human serum albumin [6]): 0.47 nM
- EC50 (mouse serum albumin [25]): 0.03 nM
- Kd (cynomolgus serum albumin [8]): 18.5 nM
- Kd (human serum albumin [9]): 21.1 nM
- Kd (mouse serum albumin [10]): 3.7 nM
- Kd (cynomolgus serum albumin [11]): 83 nM
- Kd (human serum albumin [12]): 15.3 nM
- Kd (mouse serum albumin [13]): 3.3 nM
- EC50 (read off the curve) (cynomolgus serum albumin [19]): ~0.6 nM
- EC50 (read off the curve) (human serum albumin [20]): ~1 nM
- EC50 (read off the curve) (mouse serum albumin [26]): ~0.06 nM
- EC50 (read off the curve) (rat serum albumin [21]): ~0.04 nM
- koff (cynomolgus serum albumin [27]): 0.00218 s⁻¹
- kon (cynomolgus serum albumin [27]): 118000 M⁻¹ s⁻¹
- koff (human serum albumin [28]): 0.00245 s⁻¹
- kon (human serum albumin [28]): 116000 M⁻¹ s⁻¹
- kon (mouse serum albumin [29]): 166000 M⁻¹ s⁻¹
- koff (cynomolgus serum albumin [30]): 0.0037 s⁻¹
- kon (cynomolgus serum albumin [30]): 44600 M⁻¹ s⁻¹
- koff (human serum albumin [31]): 0.00317 s⁻¹
- kon (human serum albumin [31]): 208000 M⁻¹ s⁻¹
- koff (mouse serum albumin [32]): 0.000575 s⁻¹
- kon (mouse serum albumin [32]): 176000 M⁻¹ s⁻¹
- EC50 (read off the curve) (canine serum albumin [22]): ~2 nM
- EC50 (read off the curve) (porcine serum albumin [33]): ~9 nM

B5: AVA04-251 XT61 (designed binder)
chain: MIPRGLSEAKPATPEIQEIVDKVKPQLEEKTNETYGKLEAVQYKTQVLAREGRQDWVLSTNYYIKVRAGDNKYMHLKVFNGPWVPFPHQQLADRVLTGYQVDKNKDDELTGFAEAAAKEAAAKEAAAKEAAAKEAAAKEAAAKMIPRGLSEAKPATPEIQEIVDKVKPQLEEKTNETYGKLEAVQYKTQVLADWWQAKWPHSTNYYIKVRAGDNKYMHLKVFNGPYKVHQSSGGADRVLTGYQVDKNKDDELTGFAEAAAKEAAAKEAAAKEAAAKEAAAKEAAAKMIPRGLSEAKPATPEIQEIVDKVKPQLEEKTNETYGKLEAVQYKTQVLAREGRQDWVLSTNYYIKVRAGDNKYMHLKVFNGPWVPFPHQQLADRVLTGYQVDKNKDDELTGFHHHHHH
- Kd (mouse serum albumin [7]): 113 nM
- koff (mouse serum albumin [7]): 0.0337 s⁻¹
- kon (mouse serum albumin [7]): 297000 M⁻¹ s⁻¹
- EC50 (human serum albumin [34]): 8.8 nM
- EC50 (mouse serum albumin [35]): 60.8 nM
- Kd [36]: 0.298 nM
- koff [36]: 0.000159 s⁻¹
- kon [36]: 534000 M⁻¹ s⁻¹
- Kd (human serum albumin [14]): 325 nM
- koff (human serum albumin [14]): 0.00758 s⁻¹
- kon (human serum albumin [14]): 23300 M⁻¹ s⁻¹
- Kd (human serum albumin [15]): 31.1 nM
- koff (human serum albumin [15]): 0.00308 s⁻¹
- kon (human serum albumin [15]): 98800 M⁻¹ s⁻¹
